Laboratory results as given in US20140079713A1.

Molecular target: PTCH1-GFP (mouse) (UniProt Q61115)
Assay: cell surface binding of BOC-Fc proteins to COS7 cells expressing PTCH1-GFP, anti-Fc HRP

Chain of UniProt Q61115 (Q61115 whole entry): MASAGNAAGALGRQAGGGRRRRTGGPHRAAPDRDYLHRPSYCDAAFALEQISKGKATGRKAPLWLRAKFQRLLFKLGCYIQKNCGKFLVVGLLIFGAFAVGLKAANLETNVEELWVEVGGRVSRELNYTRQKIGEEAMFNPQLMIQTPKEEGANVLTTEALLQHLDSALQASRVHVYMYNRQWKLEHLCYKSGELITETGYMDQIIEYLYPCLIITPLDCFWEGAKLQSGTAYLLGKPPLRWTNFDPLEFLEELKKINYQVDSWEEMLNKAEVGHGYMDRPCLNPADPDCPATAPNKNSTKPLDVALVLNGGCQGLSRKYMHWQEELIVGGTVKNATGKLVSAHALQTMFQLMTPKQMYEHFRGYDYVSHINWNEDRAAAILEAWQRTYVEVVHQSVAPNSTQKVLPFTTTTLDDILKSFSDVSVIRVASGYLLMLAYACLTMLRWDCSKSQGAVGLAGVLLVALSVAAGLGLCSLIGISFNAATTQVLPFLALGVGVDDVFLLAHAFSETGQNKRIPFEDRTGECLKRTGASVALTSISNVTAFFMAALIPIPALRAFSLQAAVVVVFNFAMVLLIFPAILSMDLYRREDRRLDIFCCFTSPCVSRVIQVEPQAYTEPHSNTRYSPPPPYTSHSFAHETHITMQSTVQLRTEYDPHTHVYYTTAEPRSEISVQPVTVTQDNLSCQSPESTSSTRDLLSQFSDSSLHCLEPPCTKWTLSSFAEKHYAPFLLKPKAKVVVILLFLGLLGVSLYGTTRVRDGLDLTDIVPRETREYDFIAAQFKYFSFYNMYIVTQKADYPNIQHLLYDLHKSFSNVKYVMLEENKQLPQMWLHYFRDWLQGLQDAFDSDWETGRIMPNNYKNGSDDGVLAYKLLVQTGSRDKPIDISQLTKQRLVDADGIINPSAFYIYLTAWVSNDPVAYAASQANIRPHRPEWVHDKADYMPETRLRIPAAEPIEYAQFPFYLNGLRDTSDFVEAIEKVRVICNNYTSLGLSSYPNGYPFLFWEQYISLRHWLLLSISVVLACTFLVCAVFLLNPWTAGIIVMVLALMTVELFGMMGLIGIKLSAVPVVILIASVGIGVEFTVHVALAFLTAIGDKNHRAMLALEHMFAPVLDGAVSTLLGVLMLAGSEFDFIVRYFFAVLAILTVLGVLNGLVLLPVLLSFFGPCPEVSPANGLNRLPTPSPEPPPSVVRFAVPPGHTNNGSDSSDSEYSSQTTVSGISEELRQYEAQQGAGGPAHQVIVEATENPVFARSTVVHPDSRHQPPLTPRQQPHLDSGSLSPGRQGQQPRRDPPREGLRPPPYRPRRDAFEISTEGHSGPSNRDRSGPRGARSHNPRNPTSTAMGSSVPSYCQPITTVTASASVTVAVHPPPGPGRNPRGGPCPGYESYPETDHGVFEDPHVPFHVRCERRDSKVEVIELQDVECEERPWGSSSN

Substance	binding level relative to BOC ecto-Fc
BOC-Fc construct containing the FNIIIb domain alone (Fc fusion)	60%
BOC-Fc construct containing the FNIIIa domain alone (Fc fusion)	60%
